Source: PMC10858199 (2024)

Molecular target: Amyloid-beta aggregates (Homo sapiens, UniProt P05067)
Test: SPR

- Kd: ~1000 nM
B1: CR4 I-domain (protein)
chain: RNFATMMNFVRAVISQFQRPSTQFSLMQFSNKFQTHFTFEEFRRSSNPLSLLASVHQLQGFTYTATAIQNVVHRLFHASYGARRDAAKILIVITDGKKEGDSLDYKDVIPMADAAGIIRYAIGVGLAFQNRNSWKELNDIASKPSQEHIFKVEDFDALKDIQNQLKEKIFAIEGT
